From US20250177547A1, “PSMA-STEAP1 DUAL VARIABLE DOMAIN IMMUNOGLOBLIN (DVD-Ig) MOLECULES AND DRUG CONJUGATES” (AbbVie Inc., priority 2023, published 2025)
Marks after values point to notes of the source that are not given here.

Key:
[1] = tested on: HEK293-PSMA cells; experiment: In vitro cytotoxicity of MMAE conjugates (CellTiter-Glo), HEK293-PSMA; details: FIG. 3B/3E
[2] = tested on: 22Rv1 xenograft; experiment: 22Rv1 xenograft study of MMAE conjugates; format: in vivo, mouse; details: FIG. 4A
Protocol: (§1) Male NSG mice were obtained from Jackson Laboratories (Bar Harbor, ME) for both LNCaP.FGC and 22Rv1 xenograft studies. Mice were housed by treatment group at seven to eight mice per cage. Food and water were available ad libitum. Mice were acclimated to the animal facilities for a period of at least one week prior to commencement of experiments. Animals were tested in the light phase of a 12-hour light:12-hour dark schedule (lights on at 06:00 hours).
(§2) To generate xenografts from LNCaP.FGC (ATCC) and from 22Rv1 (ATCC) cell lines, 5×10^6 viable LNCaP.FGC and 22Rv1 cells were inoculated subcutaneously into the right flank of male NSG mice, respectively. The injection volume was 0.1 mL and composed of a 1:1 mixture with Matrigel (BD, Franklin Lakes, NJ). Measurements of the length (L) and width (W) of the tumor were taken via electronic caliper and the tumor volume was calculated according to the following equation: V=L×W^2/2.
Mice were assigned to treatment groups so that the mean tumor volumes within groups were approximately 175-250 mm^3. […] Mice were euthanized (1) when tumor volume reached 2,000 mm^3, (2) when general efficacy parameters were confidently determined, or (3) when necessitated by other animal health issues.

[3] = tested on: LNCaP.FGC xenograft; experiment: LNCaP.FGC xenograft study of MMAE conjugates; format: in vivo, mouse
Protocol: as §1, §2
Mice were assigned to treatment groups so that the mean tumor volumes within groups were approximately 175-250 mm^3. An anti-PSMA-MMAE ADC at Dose-1 1×, an anti-STEAP1-MMAE ADC at Dose-1 1×, and various of the PSMA/STEAP-1 DVD-Igs conjugated with MMAE described above at Dose-1 1.33×(Clone 13 was administered at Dose-1 0.87×due to limited compound availability) were administered within 24-48 hours of assignment to treatment groups based on tumor volumes. Tumor volumes were estimated two times weekly after dosing, with study groups body weights taken at the time of tumor measurements. Mice were euthanized (1) when tumor volume reached 2,000 mm^3, (2) when general efficacy parameters were confidently determined, or (3) when necessitated by other animal health issues.
Parameters of Efficacy were determined as follows:
TGI (tumor growth inhibition)=1−(mean tumor volume of treatment group/mean tumor volume of treatment control group)×100 based on measurements on day of vehicle endpoint. P values are derived from Student's T test comparison of treatment group vs. vehicle control group.
TGD (tumor growth delay)=(T−C)/C×100, where T is the median time to endpoint of treatment group and C is the median time to endpoint of treatment control group. P values are derived from Kaplan Meier log-rank comparison of treatment group vs. vehicle control group.

B1: STEAP1-PSMA-(vcMMAE) Clone 15: PSMA-STEAP1 DVD-Ig clone 15 conjugated with monomethyl auristatin E (MMAE) (conjugate)
heavy: EVQLVESGGGVVQPGRSLRLSCVASGFPFNNYWMTWIRQAPGKGLEWIASITITGGTTYYPGSVKGRFTISRDNSKSTLYLQMNSLRAEDTAVYYCTRERYSTEYYPYYWYFDFWGQGTMVTVSSGGGGSGGGGSEVQLVQSGAEVKKPGSSVKVSCKASGYTFTDYYMNWVKQAPGKGLEWIGLINPSNGGTNYNQKFRDKATLTVDKSTSTAYMELSSLRSEDTAVYYCARRAQATSGDYWGQGTTVTVSS
light: DIQMTQSPSSLSASVGDRVTITCRTSQDIGNYLRWFQQKPGKSPKLMIYDAINLAAGVPSRFSGSGSGTDYTLTISSLQPEDVATYYCLQHNEYPYTFGQGTKLEIKGGSGGGGSGDIQMTQSPSSLSASVGDRVTITCHASQNINVWLSWYQQKPGKAPKLLIYKASNLHTGVPSRFSGSGSGTDFTFTISSLQPEDIATYYCQQGQTYPLTFGGGTKVEIK
modifications: left off: a dimerising Fc or GST; large carriers
cytotoxic activity in HEK293-PSMA cells [1]: weaker than PSMA-MMAE
activity in 22Rv1 xenograft model relative to monospecific ADCs [2]: comparable or superior activity relative to monospecific ADCs
activity in LNCaP.FGC xenograft model relative to monospecific ADCs ([3]; FIG. 4B): comparable or superior activity relative to monospecific ADCs
PR (%) partial response ([3]; LNCaP.FGC xenograft, IP, QD x 1, >25 mm^3 but less than one-half of volume at onset): 38* %
TR (%) total responders ([3]; LNCaP.FGC xenograft, IP, QD x 1, sum of CR and PR): 75*** %
CR (%) complete response ([3]; LNCaP.FGC xenograft, IP, QD x 1, tumor burden ≤25 mm^3 for at least three consecutive measurements): 38%
TGI (%) ([3]; LNCaP.FGC xenograft, male NSG mice, IP, QD x 1, day of comparison d 63 post inoculation): 88*** %
TGD (%) ([3]; LNCaP.FGC xenograft, male NSG mice, IP, QD x 1, tumor volume endpoint 1000 mm^3): 229*** %
